Source: a protein production outcome set (Wang et al. 2014)

Assay: label from the status in PepcDB records

| Sequence | protein production |
| --- | --- |
| MTLTALFAAFCGLYLLIGGAWLVVLGGSWYYPIAGLVMLGVTVMLFRGKRAALWLYAALLLATMIWGVWEVGFDFWALTPRSDILVFFGIWLILPFVWRRLPVPSAGAVGALVVALLISGGMLTWAGFNDPQEVNGTLSADATPAAPISTVADGDWPAYGRNQEGQRFSPLKQINADNVKNLKEAWVFRTGDLKQPNDPGEITNEVTPIKVGDTLFLCTAHQRLFALDAATGKEKWHFDPQLNADPSFQHVTCRGVSYHEAKADNAPADVVADCPRRIILPVNDGRLFAVNADNGKLCETFANKGILNLQTNMPVTTPGMYEPTSPPIITDKTIVIAGAVTDNFSTREPSGVIRGFDVNTGKLLWAFDPGAKDPNAIPSDEHHFTLNSPNSWAPAAYDAKLDLVYLPMGVTTPDIWGGNRTPEQERYASSIVALNATTGKLAWSYQTVHHDLWDMDMPSQPTLADIEVNGKTVPVIYAPAKTGNIFVLDRRNGELVVPAPEKPVPQGAAKGDYVTKTQPFSDLSFRPKKDLTGADMWGATMFDQLVCRVIFHQLRYEGIFTPPSEQGTLVFPGNLGMFEWGGISVDPNRQVAIANPMALPFVSKLIPRGPGNPMEPPKDAKGSGTESGVQPQYGVPYGVTLNPFLSPFGLPCKQPAWGYISALDLKTNEVVWKKRIGTPQDSLPFPMPVKLPFTMGMPMLGGPISTAGNVLFIGATADNYLRAYNMSNGEKLWEARLPAGGQATPMTYEVNGKQYVVISAGGHGSFGTKMGDYIVAYALPDDAK | failed |
| MTLTPQELQTYLAALVRQNLQIATMIWGPPGVGKSSVVAQVARQHDLDFVDVRLSQLAPTDLRGLPVPEADAQGSGVSRWYPPEFLPRAGAGILFLDEVNMAPPTMQGMAQQLILDRRVGSYELPDGWFVWAAGNRKEDRASVFDMPAPLANRFLHLTVRPDFDSWRSYALAKGLHEHVIAFLTFRPELLWRLDPQQPAWPSPRSWEMAAQLHRAGLDASSAIGEAAGAEFAAFVRLFEQLPDLGTVLSGAGAGLKLPDEPSVRYAAVVGLAARAADAEEAYRAFTWLADSAGPEWLQLYVATLVSKFQALGQLGELAGLLGRDPRLAELVQGALSLAEGLEHHHHHH | failed |
| MTLTSSQKPFRLLVGDREVQESDLAALLQKHQLLPELVKRMRFAQVIEGIEVQPDVLEQECQAWCKQNGIAPQQLPQLLAQQQISLEQWMSSVENRLRLRLFQEREFSHRAENRFLKRKSQLDLVTYSLLRHSDGHLIQELYQQLLHGEATFEDLATQFSQGHEAKTAGKLGPVPLSQPHPALAEVLRTAQPGQILPPRNLESYWLIIRLDQLQPVAFNETIRRQMLQELFDEWLGAEVQQTLNTL | failed |
| MTMLQIVGALILLIAGFAILRLLFRALTSTASALAGFILLCLFGPALLAGYITERITRLFHIRWLAGVFLTIAGMIISFMWGLDGKHIALEAHTFDSVKFILTTALAAGLLALPVQIRTIQQNGLTPEDISKEINGYYCCFYTAFFLMACSAYAPLIALQFDISPSLMWWGGLLYWLAALVTLLWAASQIQALKRLTSAISQTLEEQPVLNSKSWLSSLQNDYSLPETLTERIWLTLISQRISRGELREFELADGNWLLDNAWYERNMAGFNEKLRESLSFTPDELKTLFRNRLNLSPEANDDFLDRCLDGGDWYPFSEGRRFVSFHHVDELRICASCGLTEVHHAPENHKPDPEWYCSSLCRETETLCQDIYERSHTGFISDATANGLILMKLPETWSTNEKMFASGGQGHGFAAERGNHIVDRVRLKNARILGDNNARNGADRLVSGTEIQTKYCSTAVRSVGAAFDGQNGQYRYMGNHGPMQLEVPRDQYAGAVETMKNKIREGKVPGVTDPAEASRLIRRGHLTYTQARNITRFGTIESVTYDIAEGSVVSLAAGGISFALTTSVFWLSTGDRDAALQTAAVQAGKTFTRTLAVYVTTQQLHRLSVVQGMLKHIDFSTASPTVRQALQKGTGAGNISALNKVMKGTLVTSLALVAVTTGPDMIKMLRGRISGAQFIRNLAVASSGVAGGAVGSVAGGILFSPLGPFGALTGRVVGGVLGGMIASAVSGKIAGALVEEDRVKILAMIQEQVTWLAGSFLLTGHEIENLNANLARVIDQNALEIIFAAGIQQRAATNMLIKPLVVSIIRQRPVMEYDASHLGNMVNRLEETLPPELPA | failed |
| MTMTHLNRLILISLLFVSLLLKSSTASSTVVDEGNRTSRNFRYRTHRFVPRFNHHPYHVTPHRSCDSFIRPYARSMCIELQRIHRSSRKQPLLSPPPPEIDPRYGVDKRLVPSGPNPLHN | failed |
| MTMTRERLYLFDTTLRDGQQTPGIDFSVEDKIAIAKLLDEFGMDYVEGGYPGANPTDTAFFQQKRTASAKFVAFGMTKRAGVSASNDPGLAALVQSKSDAICFVAKSWDYHVRVALGCTNEENLESIKTSVETAVASGKEAMVDCEHFFDGFKANPDYALACAKTAYDAGARWVVLCDTNGGTQPSEVRTIVAKVIASSIPGDHLGIHAHDDTGQAVANSLAAVEAGVRQIQGTLNGIGERCGNANLISIVPTLALKPAFADRFVSGISAEALTGISRLSRAFDELLNRAPEAQAPYVGASAFATKAGIHASALAKEPATYEHVPPESVGNRRRVMVSDQGGKANFLAELKRRGIEVPRDDHRLDALISVVKEREAEGYAYEGADASFELLARKMLHGLPEFFNVTSFRCMVERRFDANGNLKTVSEAIVKVEVDGEEKMSVAEGHGPVNALDIALRKDLGKYQSEIVDLELADFKVRILNGGTEAITRVLIESHDGTGARWWTVGVSENIIDASFQALMDSIIYKLMKNREMAGLVAAE | failed |
| MTNDKPFVDLRQYDQSWFDRGRSAWYILLWWLVQAIAFPLTPHFSSNIRCWILRLFGARIGKGVVVRPTARFTFPWKVTIGDYSWVGDDVVFYSLDEIHIGQHCVISQKSYLCTGSHDIQDPTFRLKVAGITIGNGAWVATDCFIAPGVQIGANAVIGARSSVFTSMPTGQVCWGSPCRPQHPRLKE | failed |
| MTNFKDNDGDGTKLHVVMFPWLAFGHMVPYLELSKLIAQKGHKVSFISTPRNIDRLLPWLPENLSSVINFVKLSLPVGDNKLPEDGEATTDVPFELIPYLKIAYDGLKVPVTEFLESSKPDWVLQDFAGFWLPPISRRLGIKTGFFSAFNGATLGILKPPGFEEYRTSPADFMKPPKWVPFETSVAFKLFECRFIFKGFMAETTEGNVPDIHRVGGVIDGCDVIFVRSCYEYEAEWLGLTQELHRKPVIPVGVLPPKPDEKFEDTDTWLSVKKWLDSRKSKSIVYVAFGSEAKPSQTELNEIALGLELSGLPFFWVLKTRRGPWDTEPVELPEGFEERTADRGMVWRGWVEQLRTLSHDSIGLVLTHPGWGTIIEAIRFAKPMAMLVFVYDQGLNARVIEEKKIGYMIPRDETEGFFTKESVANSLRLVMVEEEGKVYRENVKEMKGVFGDMDRQDRYVDSFLEYLVTNR | failed |
| MTNHEQVLTDYLAAFIEELVQAGVKEAIISPGSRSTPLALMMAEHPTLKIYVDVDERSAGFFALGLAKASKRPVVLLCTSGTAAANYFPAVVEANLSQIPLIVLTADRPHELRNVGAPQAMDQLHLYGSHVKDFTDMALPENSDEMLRYAKWHSSRAVDIAMKTPRGPVHLNFPLREPLVPILEPSPFTATGKKHHHVH | failed |
| MTNIFASWGLIKLEIVRALRNRKFLFFSVIYPSALFLLIAGSADSTTKVEGTGLSLPTFFMVSMASFGALTAVLMGNSERIAKERESGWVRQLRLTTLPGRGYVLAKTASAAVISLPSILIVFVVAAAVKNVRLDAWQWLALTGTIWVGSLVFAALGVAIGYLATGDAVRPITMIVYFGLSMLGGLWMPTTTFPDWLQSIAKWLPTHAYAALGQAIELGNAPQAKDIAILAVSFVLFAGGAAWLYRKDTLKA | failed |
| MTNILILMEREIIKILSVVEFHPLILAFHLGLMLAGVSLLSYSLFLILVKKVDIMLPLVISFMAYLTSLILLILILLLETYRFLIFDGRILVKNSLLTRNEFKFSLRDKNLIIGFYDKASLGKFAIIYGDRLLFKFLTQQKNIRLIKNFVVKSGYRLGGTYKICRVCGSINEENAEYCDFCGSREVSPYDLYWID | failed |
| MTNITASIVLYNNPIDQIRQCIESMQADTRVHVLLVDNSEKKGGYTGLAADNVEILDAPGNVGFGRGHNLVLGRLAALRSEVHLVVNPDIVVSAGCVQAVADVLRQRKDVTLVGPRVVSPDGALYRSCKLLPTPWNLFARRFAPRQLYAAADARYELEAFGYDRELRLHNLSGAFLAFRSEAFTALGGFDPRYFMYLEDVDICRRAAGLGAVIFLPQAEVVHEHGKGSYRSWRLLREHMRSAILYFNRFGWFVDAERRLLNRETLARVNDMRSVVLEHHHHHH | failed |
| MTNLELSGSQSYLNDESTANLSSLAGKFLVQFWGVRGLIPTPSSNTSRYGGNTACVEMQVAGKRLIFDGGTGLRILGKAWQHLQQPLEAHLFFTNSQSNRIQGFPFFAPAFIAGNCFHIYGGAASNGASIKQCLCDQMLQPHFPYPLQVMQSELQFYPLTPDSEVKLDDVTIRTALINQTQRSIGYRVTWQEYSVAYVTDLNMSAEQGEREQVLQIIQDVDLLIANATYTPPTSHDHESVDLLWQAAVEMAQKAGVRKLIISHHHPDDHDDFLDQVEKEVQSTFSDALLACEGLALPVFLEHHHHHH | not failed |
| MTNNLKQRRIILDLAVTLDGFIEGKNGEVDWCIMDPDMGFTDFLNQIDTILYGRKSFDLWGQYIPKNEDPDTEKELWKLVHSKKKYVFSRTQNEIDNQAIFINDNILEEVNKLKKNPGKDIWLYGGASLITTFINLGLVDEFRLSIHPVVLGEGKPLFIDVKQRINLKMVNTRTFSSGVVQIVYHWNG | not failed |
| MTNNSTKVCVLLATYNGTKWCLDQVKSILNQEDVNLEVFVSDDLSSDSTTDLLALLNDSRIHILASSYKFGSACQNFFRLVRDVDFSEYDYIAFADQDDLWNPNKLSYSIEQLNAHCADAFSSNVTAFWPDGRARLIVKDQPQREWDFLFESAGPGCTFVLTKKLACNLANFLHNNYEKTKGVALHDWFTYAFARSNSYSWWIDSQPTMMYRQHESNEFGVNSGVTAALSRFRKTSNGWYRNQVILIGDLVGAEDSWPIKRMRRFSLLDRMLLLFNVFAFRRSFRDRIALFFLLLLPQKKLEHHHHHH | not failed |
| MTNSEVSTDLPDKPTSDNEQPDKATSDKEQLGKPPSDRDLRNPTSRLRARLQLIGGALASIAAIGAIAGGLVGYWTVWKTLRTDVFPDKQQTQREATARPDVAPRLSLVVLPFANLNNDPEQDYFADSITTDLTTDLAQMPGAFVIGRGTAFTFKNKQIDFKTLGKELGIRWAVQGAVRRNGDQIRVNVSLTDAASGRDIWSDRFDGDRTNLAALQDQITGRLARSLNIELMQAESRRSEKDQSRNPDAMDFTMRGWAKFYEPRSKTEIAQAKDLFDRALHLDPDNVDAMIAKAWCLAIAAGFRWSTSMAEDKEIATDLIDRALAKSSSNALAYVVKGDTLRVFGRPEEALPEYDAALEINPNFPIAYAQKGLALILSGRAREAFSPLQLALRLSPKDPIAVSWYYNLCHAHLHLQEYEEATKDCRRVININNAFWYAYVDLVSAYGASGQLEPARQSLTELNKIRPDFTIQWFREFGYGYSSNPQFRREFDEILDGLRKGGVREQ | failed |
| MTNTRNENLGYVYGLIAVTAFALTLPAMRAALSALDPVFVALGRGAGAAVLAAVFLWFTRQRLPTREEAKGLIIVAAGAVIGFPLLAAWAMLYVDASHGGVVLGILPLATAVAAALFSNERPSMKFWLFALIGAGLVVGYSLSRAGGTLHPADLALFGSIVCAGVSYAEGARLSKSLGGPQVISWALVFSFPILIIPAIHYAPVSLNLPLESWLGFIYLTVISQYLGFFPWYHGLALGGIAKVGQTQLLQPFLTIIASVLLLGEHADLMTWLVATLVVAVVAVGKHAQVKHNDPESATIADTSPHS | failed |
| MTNVGRPIETHAITVGQGSDARSIAALVRAPAQDERPTCIWLGGYRSDMTGTKALEMDDLAASLGVGAIRFDYSGHGASGGAFRDGTISRWLEEALAVLDHFKPEKAILVGSSMGGWIALRLIQELKARHDNPTQVSGMVLIAPAPDFTSDLIEPLLGDRERAELAENGYFEEVSEYSPEPNIFTRALMEDGRANRVMAGMIDTGCPVHILQGMADPDVPYQHALKLVEHLPADDVVLTLVRDGDHRLSRPQDIDRMRNAIRAMIEPRP | not failed |
